Results on two molecules are retold here after patent US20240317847A1 (Bayer, published 2024).

Experiment [1] has as its target T1, human IL-11 (human, UniProt P20809 22-199).
T1 construct: Invigate recombinant protein; biotinylated when immobilized in the Di-complex ELISA; also called hIL11; hIL-11
T1 sequence: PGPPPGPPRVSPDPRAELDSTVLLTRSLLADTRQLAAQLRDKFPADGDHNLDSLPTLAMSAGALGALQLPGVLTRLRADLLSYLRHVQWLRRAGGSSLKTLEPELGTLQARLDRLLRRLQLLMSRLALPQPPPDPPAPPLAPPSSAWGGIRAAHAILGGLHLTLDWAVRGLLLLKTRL
The experiment is described as follows: SPR (Biacore), 37 C, antibody captured via anti-Fc, IL-11 as analyte.

Experiment [2] concerns the target T2, cynomolgus IL-11 (cynomolgus, UniProt P20808 22-199).
T2 construct: Invigate recombinant protein; also called cIL11; Macaca IL-11
T2 sequence: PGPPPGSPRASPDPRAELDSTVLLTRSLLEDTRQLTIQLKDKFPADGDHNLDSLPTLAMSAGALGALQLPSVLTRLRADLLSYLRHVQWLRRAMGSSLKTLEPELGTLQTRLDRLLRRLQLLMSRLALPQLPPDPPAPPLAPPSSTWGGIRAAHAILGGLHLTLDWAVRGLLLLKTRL
Described as above.

In experiment [3] the target is T3, rat IL-11 (rat, UniProt Q99MF5 22-199).
T3 construct: Invigate recombinant protein; also called rIL11
T3 sequence: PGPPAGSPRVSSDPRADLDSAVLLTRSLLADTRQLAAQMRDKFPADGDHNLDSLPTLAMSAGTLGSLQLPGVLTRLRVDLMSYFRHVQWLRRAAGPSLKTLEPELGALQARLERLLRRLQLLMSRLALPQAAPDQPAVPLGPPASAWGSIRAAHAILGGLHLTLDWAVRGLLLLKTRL
Described as above.

The target of experiment [4] is T4, murine IL-11 (mouse, UniProt P47873 22-199).
T4 construct: Invigate recombinant protein; biotinylated when immobilized in the Di-complex ELISA; also called mIL11; mIL-11
T4 sequence: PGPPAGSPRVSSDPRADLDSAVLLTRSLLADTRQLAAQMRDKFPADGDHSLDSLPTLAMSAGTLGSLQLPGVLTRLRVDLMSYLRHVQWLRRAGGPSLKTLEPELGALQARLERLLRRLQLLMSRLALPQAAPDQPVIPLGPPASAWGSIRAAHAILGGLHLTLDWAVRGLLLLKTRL
The experiment can be described thus: Tri-complex ELISA, mIL-11 + mIL-11Ra-Fc + mgp130-Fc, inhibition of complex formation.

B1: TPP-29528 (antibody, mouse IgG1)
heavy: EVQLLESGGGLVQPGGSLRLSCAASGFTFSSYGMHWVRQAPGKGLEWVAVISYDGSYKYYADSVKGRFTISRDNSKNTLYLQMNSLRAEDTAVYYCAAGVPDYWGQGTLVTVSSAKTTPPSVYPLAPGSAAQTNSMVTLGCLVKGYFPEPVTVTWNSGSLSSGVHTFPAVLQSDLYTLSSSVTVPSSTWPSETVTCNVAHPASSTKVDKKIVPRDCGCKPCICTVPEVSSVFIFPPKPKDVLTITLTPKVTCVVVDISKDDPEVQFSWFVDDVEVHTAQTQPREEQFNSTFRSVSELPIMHQDWLNGKEFKCRVNSAAFPAPIEKTISKTKGRPKAPQVYTIPPPKEQMAKDKVSLTCMITDFFPEDITVEWQWNGQPAENYKNTQPIMDTDGSYFVYSKLNVQKSNWEAGNTFTCSVLHEGLHNHHTEKSLSHSPGK
light: QSVLTQPPSASGTPGQRVTISCSGSSSNIGSDYDVHWYQQLPGTAPKLLIYSNEERPSGVPDRFSGSKSGTSASLAISGLRSEDEADYYCSAWDSSLSGPVFGGGTKLTVLGQPKSSPSVTLFPPSSEELETNKATLVCTITDFYPGVVTVDWKVDGTPVTQGMETTQPSKQSNNKYMASSYLTLTARAWERHSSYSCQVTHEGHTVEKSLSRADCS
notes: mIgG1, Lambda
As for B1, the figures for the Kd in experiment [1], in experiment [2] and in experiment [3] were 0.34 nM, 0.2 nM and 0.33 nM, respectively. Further, the “Efficacy (%)” value in experiment [4] stood at 94.7%. For the same molecule, the IC50 in experiment [4] stood at 0.6 nM.

B2: TPP-29519 (antibody, mouse IgG1)
heavy: QVQLVESGGGVVQPGRSLRLSCAASGFTFSHYDMHWVRQAPGKGLEWVAVISYHGSVKFYADSVKGRFTISRDNSKNTLYLQMNSLRAEDTAVYYCARTPGFHFDYWGQGTLVTVSSAKTTPPSVYPLAPGSAAQTNSMVTLGCLVKGYFPEPVTVTWNSGSLSSGVHTFPAVLQSDLYTLSSSVTVPSSTWPSETVTCNVAHPASSTKVDKKIVPRDCGCKPCICTVPEVSSVFIFPPKPKDVLTITLTPKVTCVVVDISKDDPEVQFSWFVDDVEVHTAQTQPREEQFNSTFRSVSELPIMHQDWLNGKEFKCRVNSAAFPAPIEKTISKTKGRPKAPQVYTIPPPKEQMAKDKVSLTCMITDFFPEDITVEWQWNGQPAENYKNTQPIMDTDGSYFVYSKLNVQKSNWEAGNTFTCSVLHEGLHNHHTEKSLSHSPGK
light: QSVLTQPPSASGTPGQRVTISCSGSSSNIGSNYVSWYQQLPGTAPKLLIYYDDLRPSGVPDRFSGSKSGTSASLAISGLRSEDEADYYCSAWDDSLSGVVFGGGTKLTVLGQPKSSPSVTLFPPSSEELETNKATLVCTITDFYPGVVTVDWKVDGTPVTQGMETTQPSKQSNNKYMASSYLTLTARAWERHSSYSCQVTHEGHTVEKSLSRADCS
notes: mIgG1, Lambda
For the molecule B2, the Kd in experiment [1] is 0.01 nM; in experiment [2] it was 0.61 nM; in experiment [3] it was 0.023 nM. In addition, in experiment [4], the “Efficacy (%)” value was determined as 81.3%. Also, in experiment [4], the IC50 is 0.14 nM.
